Assay: soluble on expression in E. coli; label from the status in PepcDB or PDB records

Row | Sequence | soluble on expression in E. coli
1 | MENQTTDLENMVGASRAGLTRRGFISAGALCGAAMFLGGNILSRTVLANSVSAASGALLGFESIPTATADSISLPKGYTSSVLISWGQPLQANGPAFDPSGKGTAQAQEVQFGDNNDGMCLFPMPGHKDRALMAINNEYTNYRYLFDHGKEPQSAEEVQKALAAEGVSVIEVQQKQGKWQFVQDSRYNRRVHGNTPIKLSGPAAGHDWLKTDADKGGTHALGTFQNCSSGQTPWGTYLTCEENFTDCFGSSNPEQKFDAGMKRYGVVAASKEINWHPHDPRFDVAKNPNEVNRHGWVVEIDPFDPKSTPVKRTALGRFKHENAAFTQTKGGRAVVYMGDDERGEFIYKFISRDKIDHQNPKANRDLLDHGTLYVAQFDAGDSNPDHPKGKGQWIELTHGKNGLDAAASFNNQAEVLIHARLAASVVKATRMDRPEWIVVSPKDGQVYCTLTNNIKRGDEGQPVGGPNPRAKNQYGQILRWSEEGSNASAMAFDWDLFVVAGNPAVHAGTPQAGSSNINAQNMFNSPDGLSFDEAGRLWIQTDGDSSNKGDFAGMGNNQMLCADPASGEIRRFLVGPVGCEITGISFAPDYKTMFIGIQHPGENGGSTFPEHLPNGKPRSSVMVITREDGGVIGALEHHHHHH | soluble
2 | MENVEKRLIQLFTTYLNKAKHHMQGGSDMPNELVIGLHCRGEFESHRSWMQPRVQRGLEERMLFSSHKRAQIYKEAATSSLVAASSAPGEVREG | soluble
3 | MENVSDDRFAEMVWEAVSGGATLKDVHGIPQDMMEGLYAHAYDFYHKGRLDEAETFFRFLCIYDFYNPDYIMGLAAVCQLKKQFQKAVDLYAVAFALSKNDYRPVFFTGQCQLFMRKAAKARQCFELVCEQSGLEHHHHHH | not soluble
4 | MEPIDIARLEEAVVSFYRSNSQNQAITHEWLTDAEASPQAWQFSWQLMQLGKSQEVQFFGAITLHSKLMKHWHEVPPENREELKQKILESIVRFAGGPKIVLNRLCISLGAYIVHMLGEWPGAIEEVINTFQNQRMPNVSADVQLWIMLEVLTAIPEEAQVIHTSVKRVVLRAEIAKRVQLVIHTVERYLKLQMNRVWDAEAYSNMNRAVKCVGTWIKNIGYTIEGCVTITAVLLEVVHKCYWPCIHAGDGCMTADENELAESCLKTMVNIIIQPDCHNYPKTAFVLIKMFLDSLSEITKTEWKRENDNEDIIVHIYMLFVSSVERHSTLLLSGITSADPELSILVHRIVQEILHCTDKPGIYPVEESCSTMALAFWYMLQDEVFAMSNDEQKHKCWEYIKPLYAHLTRILVRKSEQPDEKSLAKWSSDDLECFRCYRQDISDTFMYCYDVLNDYILEILAAMLDEAIADLQRHPTHWTKLEACIYSFQSVAEHFGGEEKRQIPRLMRVLAEIPYEKLNVKLLGTALETMGSYCNWLMENPAYIPPAINLLVRGLNSSMSAQATLGLKELCRDCQLQLKPYADPLLNACHASLNTGRMKNSDSVRLMFSIGKLMSLLRPEEIPKYLDIIVSPCFEELQAICQADSKTPAARIRTIFRLNMISTLFSSLNTDVDEQATDQPIVQPVLLVMQRTMPIFKRIAEMWVEEIDVLEAACSAMKHAITNLRSSFQPMLQDLCLFIVASFQTRCCAPTLEISKTAIVMFFKDEGCKPLMQQLLREFIQHSFKLFESTPEQNFSNISDTMETFFGCLTQIIKKIPQVLEDKTLAYDRLVFYAQRGMTLPESGAIRNSIQFLTHFVMQSRNHAHVTEVVLATGEQTLYTAMMCVGYLTPRSQVDKFADILLAMNRKYAAEMAVWMKSLMSTPNFPTQLITDADKTRYTALIIKEKVNKRLLQQHLSEMAMKTRGLTEKFQ | soluble
5 | MEPYVGIVIFELAKSNTSPEENNSFFREDFYIVYADSEEAAHKLVEKRAHEEETPKNAAQDSGPTVTLRHIIDVAPALYGYVDKDCNLYSRHFASLEDYARFEMMLGGKDPLSH | soluble
6 | MEQFRNIGIIGRLGSVQVLDTVRRLKRFLLDRHLHVILEETIAEVLPGHGLQTSSRKMLGEVCDMVIVVGGDGSLLGAARALARHNVPVLGINRGSLGFLTDIRPDELEVKCAEVLDGHYLVENRFLLQAEVRRHGEAIGQGDALNDVVLHPGKSTRMIEFEIYIDGQFVCSQKADGLIVATPTGSTAYALSAGGPIMHPKLDAIVIVPMYPHTLSGRPIVVDGNSELKIVVSKDMTIYPQVSCDGQNHFTCAPGDTITVSKKPQKLRLIHPLDHNYYEVCRTKLGWGSRLGGGGDLEHHHHHH | soluble
